Assay results as given in patent US20230263891A1, “SONOGENETIC STIMULATION OF CELLS EXPRESSING TRPA1” (Salk Institute for Biological Studies, priority 2020, published 2023).
Entries after “also recorded” stand apart in the source; their conditions may differ.

What was measured:
HEK cells = type: cell-based, human; conditions: 0.1% , positive control
Description: FIGS. 6A-6J: Ultrasound stimulation at 2.5 MPa is safe as assessed by intracellular uptake of propidium iodide. FIG. 6A: Image showing bright field (BF) image for GCaMP6f-HEK cells, and the corresponding GFP channel (FIG. 6B) and propidium iodide channel (FIG. 6C) before ultrasound stimulation. Multiple trials with ultrasound stimulation at 2.5 MPa 100 ms had no effect on the intracellular levels of propidium iodide (FIG. 6D) n=3 stims. FIG. 6E: Image showing HEK cells used for the positive control, including GFP channel (FIG. 6F) and propidium iodide channel before treatment (FIG. 6G). […] Time course for the propidium iodide signal for an ultrasound stimulated cell highlighted in FIG. 6A, shown in FIG. 6I, and for a cell treated with […] highlighted in FIG. 6E, shown in FIG. 6J. Scale bar, 20 μm.
To facilitate rapid screening of ultrasound-triggered cellular responses, an optical imaging setup was aligned with a custom designed transducer. In particular, a single-crystal 6.91 MHz lithium niobate transducer (FIG. 1A) that lacks hysteresis and generates minimal heat as it converts electrical input into mechanical energy was designed. Such a transducer reduced ultrasound-triggered temperature changes. […]

human-TRPV1 = human-TRPV1 (Homo sapiens, UniProt Q8NER1); type: cell-based; conditions: capsaicin 3 μM
Sequence of human-TRPV1 (Q8NER1 whole entry): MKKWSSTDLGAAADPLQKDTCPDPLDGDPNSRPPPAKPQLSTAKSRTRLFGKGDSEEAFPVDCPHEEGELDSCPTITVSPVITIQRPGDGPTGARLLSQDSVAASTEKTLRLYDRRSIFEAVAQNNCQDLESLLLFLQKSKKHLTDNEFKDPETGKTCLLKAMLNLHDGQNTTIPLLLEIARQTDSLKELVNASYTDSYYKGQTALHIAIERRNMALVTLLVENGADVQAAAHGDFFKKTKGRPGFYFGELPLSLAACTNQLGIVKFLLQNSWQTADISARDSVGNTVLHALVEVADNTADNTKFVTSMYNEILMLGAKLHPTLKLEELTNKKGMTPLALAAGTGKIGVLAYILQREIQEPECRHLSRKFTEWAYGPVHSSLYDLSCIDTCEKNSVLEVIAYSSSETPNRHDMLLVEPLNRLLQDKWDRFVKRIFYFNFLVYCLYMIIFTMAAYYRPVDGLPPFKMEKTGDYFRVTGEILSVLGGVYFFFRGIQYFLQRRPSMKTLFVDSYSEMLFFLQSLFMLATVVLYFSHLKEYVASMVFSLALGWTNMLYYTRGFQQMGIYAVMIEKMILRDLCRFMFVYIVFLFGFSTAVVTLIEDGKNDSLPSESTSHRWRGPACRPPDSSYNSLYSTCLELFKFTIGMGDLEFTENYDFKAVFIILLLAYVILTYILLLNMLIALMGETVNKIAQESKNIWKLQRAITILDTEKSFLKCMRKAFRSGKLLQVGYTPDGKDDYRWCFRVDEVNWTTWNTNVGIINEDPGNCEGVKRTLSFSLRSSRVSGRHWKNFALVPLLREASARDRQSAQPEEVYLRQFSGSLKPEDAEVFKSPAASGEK

[1] = tested on: Human Embryonic Kidney 293T (HEK) cells; assay: Ultrasound-evoked GCaMP6f calcium response of HEK cells transfected with candidate channels (screen and TRPA1 variants); type: cell-based; conditions: for Response to ultrasound stimulation (cells activated, GCaMP6f): transfected GCaMP6f HEK cells, 6.91 MHz, screen at 100 msecs, 1.5 MPa
excitable HEK cells = assay: Patch-clamp electrophysiology of excitable HEK cells expressing TRPA1 channel polypeptides under ultrasound; type: cell-based, human
[2] = tested on: mouse primary cortical neurons; assay: GCaMP6f calcium imaging of primary cortical neurons under ultrasound or AITC; type: cell-based
rat primary neurons = assay: Whole-cell patch clamp (voltage and current clamp) of primary neurons under ultrasound; type: cell-based
[3] = tested on: layer V motor cortical neurons; assay: c-fos expression in cortical neurons after ultrasound in vivo; design: species or system mouse
[4] = Rotarod motor learning task; conditions: cortical expression; 5 days
[5] = hsTRPA1-expressing primary neurons, ultrasound

## Triton-X
HEK cells
  Intracellular propidium iodide: significant increase of intracellular propidium iodide

## COc1cc(CNC(=O)CCCC/C=C/C(C)C)ccc1O [capsaicin]
human-TRPV1
  Response of HEK cells expressing human TRPV1 to compound: respond

B1: hsTRPA1: human TRPA1 channel protein Clone 63 (non-mutated/WT), SEQ ID NO: 4; RefSeq XP_016869435.1 (protein, listed as Homo sapiens)
chain: MKRSLRKMWRPGEKKEPQGVVYEDVPDDTEDFKESLKVVFEGSAYGLQNFNKQKKLKRCDDMDTFFLHYAAAEGQIELMEKITRDSSLEVLHEMDDYGNTPLHCAVEKNQIESVKFLLSRGANPNLRNFNMMAPLHIAVQGMNNEVMKVLLEHRTIDVNLEGENGNTAVIIACTTNNSEALQILLKKGAKPCKSNKWGCFPIHQAAFSGSKECMEIILRFGEEHGYSRQLHINFMNNGKATPLHLAVQNGDLEMIKMCLDNGAQIDPVEKGRCTAIHFAATQGATEIVKLMISSYSGSVDIVNTTDGCHETMLHRASLFDHHELADYLISVGADINKIDSEGRSPLILATASASWNIVNLLLSKGAQVDIKDNFGRNFLHLTVQQPYGLKNLRPEFMQMQQIKELVMDEDNDGCTPLHYACRQGGPGSVNNLLGFNVSIHSKSKDKKSPLHFAASYGRINTCQRLLQDISDTRLLNEGDLHGMTPLHLAAKNGHDKVVQLLLKKGALFLSDHNGWTALHHASMGGYTQTMKVILDTNLKCTDRLDEDGNTALHFAAREGHAKAVALLLSHNADIVLNKQQASFLHLALHNKRKEVVLTIIRSKRWDECLKIFSHNSPGNKCPITEMIEYLPECMKVLLDFCMLHSTEDKSCRDYYIEYNFKYLQCPLEFTKKTPTQDVIYEPLTALNAMVQNNRIELLNHPVCKEYLLMKWLAYGFRAHMMNLGSYCLGLIPMTILVVNIKPGMAFNSTGIINETSDHSEILDTTNSYLIKTCMILVFLSSIFGYCKEAGQIFQQKRNYFMDISNVLEWIIYTTGIIFVLPLFVEIPAHLQWQCGAIAVYFYWMNFLLYLQRFENCGIFIVMLEVILKTLLRSTVVFIFLLLAFGLSFYILLNLQDPFSSPLLSIIQTFSMMLGDINYRESFLEPYLRNELAHPVLSFAQLVSFTIFVPIVLMNLLIGLAVGDIAEVQKHASLKRIAMQVELHTSLEKKLPLWFLRKVDQKSTIVYPNKPRSGGMLFHIFCFLFCTGEIRQEIPNADKSLEMEILKQKYRLKDLTFLLEKQHELIKLIIQKMEIISETEDDDSHCSFQDRFKKEQMEQRNSRWNTVLRAVKAKTHHLEP
[1]; HEK cells, 100 ms ultrasound pulse at 3 MPa 6.91 MHz
  Responsiveness to ultrasound stimulation among TRPA channels from different species (% of cells showing a response): the most responsive to ultrasound stimulation
[1]
  Response to ultrasound stimulation (cells activated, GCaMP6f): robust responses; also recorded: selectively activated by ultrasound stimulation in a pressure- and duration-dependent manner
[1]; listed as human homolog
  Response to ultrasound stimulation (cells activated, GCaMP6f): the best candidate
Excitable HEK cells
  Electrical properties (I-V curve) versus dTom controls: no significant disruptions in their electrical properties
Excitable HEK cells; cell-attached
  Basal rate of activity before ultrasound versus dTom controls: higher basal rates of activity
  Inward currents in response to ultrasound versus dTom controls: significantly larger and more numerous
Excitable HEK cells; patch clamp assay
  Electrophysiological responses to ultrasound versus GFP control: Significant electrophysiological responses to ultrasound
[2]; E18 mouse primary cortical neurons, AAV infected, 100 ms, 2.5 MPa
  Ultrasound-triggered intracellular calcium in expressing neurons versus CRE control: significant increase in intracellular calcium
[2]; [5]
  Response duration: 2 to 30 s
  Response latency after stimulus onset (majority of neurons): 500 to 900 ms
[2]; repetitive 100 ms, 2.5 MPa ultrasound stimulation
  Repeated ultrasound stimulation: cell health and calcium flux: without apparent deleterious effects on cell health or a substantial decrement in calcium flux
Rat primary neurons; current clamp
  Ultrasound-evoked action potentials in assayed neurons: all assayed hsTRPA1-expressing neurons showed ultrasound-evoked action potentials
Rat primary neurons; current clamp, 6.91 MHz
  Lowest ultrasound pressure triggering action potentials: 0.2 MPa
Rat primary neurons; whole-cell, within a few milliseconds of ultrasound stimulation, 0.25 MPa range
  Current responses to ultrasound in voltage clamp: > 400 pA
[3]; hsTRPA1-expressing mice
  c-fos expression in the auditory cortex after ultrasound: not detected
[3]; hsTRPA1-expressing transgenic mice versus GFP
  Number of c-fos positive cells in cortical motor neurons after ultrasound: significantly increased the number of c-fos positive cells
[4]
  Ability to learn the rotarod task versus GFP-expressing animals: comparable ability to learn the rotarod task
